Laboratory results as given in paper PMC12455474, “Single‐Molecule Protein Profiling Using Nanopores and Dimeric Aptamer‐Modified DNA Carriers”.

How the values were obtained:
VEGF-165 = VEGF-165 (human, UniProt P15692-4 27-191); experiment: single-molecule nanopore (carrier dimerization, biphasic Hill fit); apparent sandwich Kd; 200 pM carrier; Carriers (200 pM total) incubated with protein at 37 °C for 2 h; nanopore measurement in 100 mM KCl, 10 mM Tris-EDTA pH 8.0, -300 mV; conditions: protein: recombinant; chain copies: 2; 2 identical carriers per protein dimer; first 12 nt pair with carrier overhang
Chain of VEGF-165 (P15692 other isoform, or with tags, fused parts or gaps): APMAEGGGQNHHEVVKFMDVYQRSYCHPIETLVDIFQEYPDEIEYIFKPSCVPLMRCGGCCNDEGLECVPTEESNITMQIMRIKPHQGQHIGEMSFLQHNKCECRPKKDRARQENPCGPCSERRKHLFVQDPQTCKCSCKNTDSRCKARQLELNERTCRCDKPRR

PDGF-BB = PDGF-BB (human, UniProt P01127 82-190); experiment: as above; conditions: protein: recombinant; chain copies: 2; 2 identical carriers per protein dimer; first 12 nt pair with carrier overhang
Chain of PDGF-BB (P01127 82-190): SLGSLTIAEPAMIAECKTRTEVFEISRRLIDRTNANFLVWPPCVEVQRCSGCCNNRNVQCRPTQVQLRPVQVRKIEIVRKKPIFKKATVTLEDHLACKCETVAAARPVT

human alpha-thrombin = human alpha-thrombin (human, UniProt P00734;P00734 328-363;364-622); experiment: single-molecule nanopore (carrier dimerization, biphasic Hill fit); apparent sandwich Kd; 100 pM of each carrier; hook effect at high thrombin; Carriers (200 pM total) incubated with protein at 37 °C for 2 h; nanopore measurement in 100 mM KCl, 10 mM Tris-EDTA pH 8.0, -300 mV

GGGCGGCGACCTTTTTTTTGTGGGGGTGGACGGGCCGGGTAGA (structured_DNA, 5' phosphate, ligated to carrier) [VEGF probe (V7t1) carrier]
Kd (VEGF-165): ~0.3 pM

B1: PDGF probe carrier (structured_DNA)
DNA: GGGCGGCGACCTTTTTTTCACAGGCTACGGCACGTAGAGCATCACCATGATCCTGTG
modifications: 5' phosphate, ligated to carrier
Kd (PDGF-BB): ~1.8 pM

B2: HD1 carrier + HD22 carrier (thrombin probes 1 and 2) (structured_DNA)
DNA 1: GGGCGGCGACCTTTTTTTGGTTGGTGTGGTTGG
DNA 2: GGGCGGCGACCTTTTTTTAGTCCGTGGTAGGGCAGGTTGGGGTGACT
modifications: 5' phosphate on probes, ligated to carrier
Kd (human alpha-thrombin): ~9.1 pM
